Values quoted from earlier work as cited in patent US20120107229A1, “NOVEL NANO-PROBES FOR MOLECULAR IMAGING AND TARGETED THERAPY OF DISEASES” (priority 2009, published 2012).

Biological target: T1, CD44 (Homo sapiens, UniProt P16070)
T1 construct: host or cells: melanoma cells (collagen fragment only)
T1 sequence (P16070 21-742, species assumed): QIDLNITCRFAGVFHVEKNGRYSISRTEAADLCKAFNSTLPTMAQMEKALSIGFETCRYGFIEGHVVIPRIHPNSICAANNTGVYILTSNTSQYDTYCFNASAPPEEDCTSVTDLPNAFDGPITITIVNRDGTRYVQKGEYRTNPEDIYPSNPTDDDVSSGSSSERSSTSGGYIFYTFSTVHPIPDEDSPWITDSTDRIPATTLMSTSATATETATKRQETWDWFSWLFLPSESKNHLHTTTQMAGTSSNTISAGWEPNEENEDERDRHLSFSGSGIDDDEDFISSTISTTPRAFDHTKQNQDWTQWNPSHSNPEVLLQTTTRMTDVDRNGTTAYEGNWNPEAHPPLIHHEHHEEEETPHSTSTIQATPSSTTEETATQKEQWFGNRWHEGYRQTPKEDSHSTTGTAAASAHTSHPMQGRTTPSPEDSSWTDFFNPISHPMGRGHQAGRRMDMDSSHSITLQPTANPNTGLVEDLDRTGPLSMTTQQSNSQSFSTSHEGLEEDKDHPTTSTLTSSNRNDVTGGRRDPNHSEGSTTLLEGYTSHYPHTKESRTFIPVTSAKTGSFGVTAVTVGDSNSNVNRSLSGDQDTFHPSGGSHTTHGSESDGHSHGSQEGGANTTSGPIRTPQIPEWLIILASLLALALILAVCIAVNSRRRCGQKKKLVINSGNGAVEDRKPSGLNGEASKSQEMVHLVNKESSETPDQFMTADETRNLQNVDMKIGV

| Sequence | binding to CD44 on cells (melanoma cells) | share of the binding of CD44 to intact fibronectin (fibronectin digestion and fractionation studies) |
| --- | --- | --- |
| GVKGDKGNPGWPGAP | found to bind with CD44 on melanoma cells |  |
| KNNQKSEPLIGRKKT |  | 65.5% |
